We go through seven molecules from patent publication US20230071609A1 (Genentech, published 2023).

One test has as its target T1, APOL6-myc-FLAG (human, UniProt Q9BWW8 1-343).
T1 construct: whole, on cells; In fixed, permeabilized transfected COS cells; untagged APOL6 in the western blots; not shown: C-terminal myc-FLAG tag
T1 sequence (looked up): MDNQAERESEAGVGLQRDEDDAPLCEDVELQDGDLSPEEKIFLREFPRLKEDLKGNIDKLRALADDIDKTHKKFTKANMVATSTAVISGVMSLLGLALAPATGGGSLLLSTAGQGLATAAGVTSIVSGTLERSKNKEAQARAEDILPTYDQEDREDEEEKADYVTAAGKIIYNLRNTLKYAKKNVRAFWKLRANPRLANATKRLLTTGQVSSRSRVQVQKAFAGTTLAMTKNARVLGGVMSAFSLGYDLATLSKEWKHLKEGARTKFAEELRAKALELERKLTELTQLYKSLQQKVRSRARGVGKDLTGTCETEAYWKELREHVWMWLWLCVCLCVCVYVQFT
The experiment in a line: immunofluorescence on transfected COS cells; grade. An excerpt:
COS cells were transfected as in FIG. 31A except APOL1 and APOL2 were also C-terminally myc-FLAG tagged. Overlays of APOL with epitope tags: either mouse anti-FLAG-M2 or mouse anti-myc 9E10 for anti-APOL1 rabmabs; or rabbit anti-Myc 71D10 in conjunction with mouse anti-APOL1. Signals indicate the two antibodies overlap (i.e. anti-APOL1 cross-reacts with that APOL); signals (epitope tag only) indicate no cross-reactivity. Alexa647 anti-rabbit or mouse were used for the tags to rule out the possibility that any colocalization was a bleed-through artifact. Sparsely transfected areas were imaged to permit evaluation of background staining in adjacent untransfected cells—DAPI nuclear staining identifies both untransfected and transfected cell nuclei. […] Note that none of the antibodies cross-reacted with the more distantly related APOL6. *, APOL2-myc-FLAG is presumably misfolded, since it is not as cross-reactive as untagged APOL2 (compare FIG. 31A) with several antibodies. Commercial antibodies are Sigma HPA018885, Epitomics EPR2907 (2) (Epito) and Proteintech 11486-2-AP (Ptech).
Cells were plated on LabTekII (Nalge Nunc 154534) slides and fixed at 70-100% confluency. For mAb screening, cells were fixed/permeabilized for 5 min in −20° C. methanol (EMD MX0485-6). For all other experiments, cells were fixed in 3% paraformaldehyde in PBS (EMS 15710) for 20 mins at room temperature, quenched with 50 mM NH₄Cl in PBS for 10 mins, then permeabilized with 0.1% TX-100 in PBS for 4 mins or for 1h in saponin buffer [0.4% saponin (Sigma S7900), 1% bovine serum albumin (BSA; Sigma A2153), 2% fetal bovine serum (Seradigm) in PBS]. First antibodies (stored sterile at 4° C.) were applied for 1 h at room temperature, at 1 μg/ml for screening on transfected cells or at subsequently optimized concentrations for detecting endogenous APOL1. After 3×10 min washes in PBS (for Methanol or TX-100 protocols) or saponin buffer (saponin protocol), secondary antibodies were applied at 1.88 μg/ml for 1 h at room temperature, washed 3× and mounted under No. 1.5 coverslips in ProLong Gold with DAPI (4′,6-diamidino-2-phenylindole; Life Technologies P36931).

In test [1] the target is T2, circulating APOL1 in normal human serum (human, UniProt O14791 28-398).
T2 construct: mature; Serum of healthy volunteers; lipoprotein-associated; also called serum APOL1; HDL APOL1
T2 sequence (looked up): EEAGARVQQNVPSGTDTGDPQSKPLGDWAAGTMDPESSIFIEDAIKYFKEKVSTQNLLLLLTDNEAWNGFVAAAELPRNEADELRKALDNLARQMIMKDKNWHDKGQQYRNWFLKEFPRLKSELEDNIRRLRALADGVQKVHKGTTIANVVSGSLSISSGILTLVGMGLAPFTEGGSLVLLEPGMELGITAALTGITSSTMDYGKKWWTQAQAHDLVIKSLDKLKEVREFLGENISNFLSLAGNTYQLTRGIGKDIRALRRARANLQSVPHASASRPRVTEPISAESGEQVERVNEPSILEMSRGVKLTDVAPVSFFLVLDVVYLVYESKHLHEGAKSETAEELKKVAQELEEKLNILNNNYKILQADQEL
The test is described as follows: summary of the Examples: trypanolysis blocking as proxy for serum APOL1. The protocol:
The trypanolysis assay used herein to text specificity of antibodies for serum APOL1 is as follows. Trypanosoma brucei brucei were obtained from ATCC and cultured in HMI-9 media containing IMDM (Genentech), heat-inactivated (56° C. for 30 min) FBS (Seradigm IXL9/06807/GEN), 1% serum plus (Sigma 14008C), HMI-9 (Genentech) and 1% hypoxanthine (Genentech). Trypanosome lysis was performed by treating 1×10⁵ Trypanosomes with serial dilutions of NHS or recombinant APOL1 for 16 h in a total of 100 μl. Live cell read out was done by the Alamar Blue assay as per the manufacturer's protocol, (Thermo Fisher, DAL1100). Briefly 10 μl of Alamar Blue was added to each well, incubated at 37° C. for 4 h. Red fluorescence, indicating live trypanosomes, was measured on a SpectraMax® fluorimeter powered by SoftMAX® PRO with excitation at 530 nm and emission 590 nm. For the antibody blocking assay, 1% normal human serum was preincubated with 1-10 μg/ml of anti-APOL1 antibody or media at room temperature for 20 minutes followed by addition of trypanosomes. After 16 h, the Alamar Blue assay was performed as above and background values for media only were subtracted and % blocking calculated by normalizing to no antibody control.
Trypanosoma brucei brucei were obtained under MTA from ATCC and cultured in HMI-9 media containing IMDM (Genentech), heat-inactivated (56° C. for 30 min) FBS (Seradigm IXL9/06807/GEN), 1% serum plus (Sigma 14008C), HMI-9 (Genentech) and 1% hypoxanthine (Genentech). Trypanosome lysis was performed by treating 1×10⁵ Trypanosomes with serial dilutions of NHS or recombinant APOL1 for 16 h in a total of 100 μl. Live cell read out was done by the Alamar Blue assay as per the manufacturer's protocol (30) (Thermo Fisher, DAL1100). Briefly 10 μl of Alamar Blue was added to each well, incubated at 37° C. for 4 h. Red fluorescence, indicating live trypanosomes, was measured on a SpectraMax fluorimeter powered by SoftMAX PRO with excitation at 530 nm and emission 590 nm. For the antibody blocking assay, 1% normal human serum was preincubated with 1-10 μg/ml of anti-APOL1 antibody or media at room temperature for 20 mins followed by addition of trypanosomes.

B1: antibody 3.7D6 (antibody, V domains shown)
VH: QIQLVQSGPDLKKPGETVKISCRTSGYAFTNYGVNWVKQAPGKGLKWMGWINTNTGQTTYAEEFRGRFAISLETSASTAFLTISNLKNEDSATYFCARLIYDGDYISSDFWGQGTTLTVSS
VL: DIQMTQSPDSLSASVGETVTITCGASENIYGALNWYQRKQGKSPQLLIYGATNLADGMSSRFSGSRSGRQYSLKISSLHPDDVATYYCQNALSMPYTFGGGTKLEIKR
notes: Mouse mAb, cloned as murine IgG2a LALAPG; those versions are not written separately; also called PFD antibody 3.7D6
B1: the binding result with APOL6-myc-FLAG was “no binding (tested: 1 µg/ml)”.

B2: antibody 3.6D12 (antibody, V domains shown)
VH: EVMLVESGGGLVRPGGSLKLSCTASGFTFSRCAMSWVRQTPEKRLEWVSAISRDSTYTYYSDSVKGRFTVSRDNAKNTLYLQMSSLRSEDTAMYYCARQIDDYYVDALDYWGQGTSVTVSS
VL: DVQITQSPSYLAASPGETITINCRASKIISKYLAWYQEKPGKTIKLLIYSGFTLQSGIPSRFSGSGSGTDFTLTISSLEPEDFAMYYCQQHNEYPLTFGAGTKLEIKR
notes: Mouse mAb (Method #3), cloned as murine IgG2a LALAPG; Early screens used hybridoma-purified antibody; also called mAb 3.6D12
B2: the binding result with APOL6-myc-FLAG is “no binding (tested: 1 µg/ml)”; in test [1], “binds”.

B3: antibody 3.1C1 (antibody, V domains shown)
VH: QVQLQQSGPELVKPGASVRISCKASGYTFTNYFIHWVKQRPGQGLEWIGWINPGNLNTKYTEEFKGKATLTADKSSSTAYIQLNSLTSEDSAVYFCVNGNPFVYWGQGTLVTVSA
VL: DIVMTQSPSSLTVIAGEKVTLNCKSSQSLLNSGNQKKYLTWLQQKPGQPPKLLIYWTSTRDSGVPDRFTGSGSGTDFTLTISSVQAEDLAVYYCQNDYSYPLTFGAGTKLEIKR
notes: Mouse mAb, cloned as murine IgG2a LALAPG; not written separately; also called SRA-ID mAb 3.1C1
Take B3: the binding result is “no binding (tested: 1 µg/ml)” with APOL6-myc-FLAG and “binds” in test [1].

B4: antibody 3.6E10 (antibody, V domains shown)
VH: QVQLQQSGAELAKPGASVKMSCKASGYIFTSYYLHWVKQRPGQGLEWIGYINPNTGYTEYTQNFKDRATLTADKSSSTAYMQLTSLTSEDSAVYFCVNGNPFVYWGQGTLVTVSA
VL: DIVMTQSPSSLTVTTGEKVTMTCRSSQSLLNSGNQKNYLTWFQQKPGQPPKLLIYWTSTRYSGVPDRFTGSGSGTDFTLTISSVQAEDLAVYYCQNDYSYPLTFGAGTKLEIKR
notes: Mouse mAb, cloned as murine IgG2a LALAPG
On to B4, for which the binding result with APOL6-myc-FLAG is given as “no binding (tested: 1 µg/ml)”; in test [1], “binds”.

B5: antibody 4.12E5 (antibody, V domains shown)
VH: EVQLQQSGPELVKTGASVKISCKASGYSFTGYFMHWVKQSHGKSLEWIGYISCYNGASVYNQRFKGKATFTIDTSSSTAYMQFNSLTSEDSAVYYCARDVLRYPRYAVDYWGQGTSVTVSS
VL: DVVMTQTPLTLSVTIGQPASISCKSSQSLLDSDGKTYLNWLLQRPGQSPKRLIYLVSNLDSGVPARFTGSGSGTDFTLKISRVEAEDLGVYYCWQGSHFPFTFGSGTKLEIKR
notes: as for B4
For the molecule B5, the binding result in test [1] was “binds”.

B6: rabbit monoclonal antibody 5.17D12 (antibody, V domains shown)
VH: QSLEESGGDLVKPGASLTLTCTASGFSFSSNYYMCWVRQAPGKGLEWIACVYVGSGGSTYYASWAKGRFTFSKTSSTTWTLQMTSLTAADTATYFCARDLSYAGDLWGPGTLVTVSS
VL: DPVMTQTPASVSEPVGGTVTINCQASESISSYLAWYQQKPGQPPKLLIYGASNLASGVPSRFKGSGSGTEYTLTISDLECDDAATYYCQSAYYSNSGGHAFGGGTEVVVKG
notes: Rabbit mAb (Method #5), recombinant; also called rabmab 5.17D12
Turning to B6, the binding result with APOL6-myc-FLAG is recorded as “no binding (tested: 1 µg/ml)”; in test [1] it was “binds”.

B7: antibody 4.17A5 (antibody, V domains shown)
VH: QVQLQQSGPELLKPGASVKISCKGSGYAFSNSWINWVKLRPGQGLEWIGRIYPGDGDTKYNGKFKGKATLTADKSSSTAHMQLRSLTSVDSAVYFCARFPFGKYEGPGAMDYWGQGTSVTVSS
VL: DIQMTQTTSSLSASLGDRVTISCRASQDISSYLNWYQQKPDGTIKLLIYYTSRLHSGVPSRFSGSGSGTDFSLTISNLEQEDIATYFCQQGNTLPYTFGGGTKLEIKR
notes: Mouse mAb (Method #4), cloned as murine IgG2a LALAPG; also called mAb 4.17A5
As for B7, the binding result was “no binding (tested: 1 µg/ml)” with APOL6-myc-FLAG and “binds” in test [1].
